{"source": "the DeepSol protein solubility set"}
{"test": "soluble on expression in E. coli; label from the status in PepcDB or PDB records"}
{"sequence": "MAYSYTEKKRIRKDFSKLPDVMDVPYLLAIQLDSYREFLQAGATKEQFRDVGLHAAFKSVFPIISYSGNAALEYVGYRLGEPAFDVKECVLRGVTFAVPLRVKVRLIIFDRESSNKAIKDIKEQEVYMGEIPLMTENGTFIINGTERVIVSQLHRSPGVFFDHDRGKTHSSGKLLYSARIIPYRGSWLDFEFDPKDCVFVRIDRRRKLPASVLLRALGYSTEEILNAFYATNVFHIKGETLNLELVPQRLRGEVASIDIKDGSGKVIVEQGRRITARHINQLEKAGVSQLEVPFDYLIGRTIAKAIVHPATGEIIAECNTELTLDLLAKVAKAQVVRIETLYTNDIDCGPFISDTLKIDNTSNQLEALVEIYRMMRPGEPPTKEAAETLFGNLFFSAERYDLSAVGRMKFNRRIGRTEIEGPGVLSKEDIIDVLKTLVDIRNGKGIVDDIDHLGNRRVRCVGEMAENQFRVGLVRVERAVKERLSMAESEGLMPQDLINAKPVAAAIKEFFGSSQLSQFMDQNNPLSEITHKRRVSALGPGGLTRERAGFEVRDVHPTHYGRVCPIETPEGPNIGLINSLATYARTNKYGFLESPYRVVKDSLVTDEIVFLSAIEEADHVIAQASATLNEKGQLVDELVAVRHLNEFTVKAPEDVTLMDVSPKQVVSVAASLIPFLEHDDANRALMGSNMQRQAVPTLRADKPLVGTGMERNVARDSGVCVVARRGGVIDSVDASRVVVRVADDEVETGEAGVDIYNLTKYTRSNQNTCINQRPLVSKGDVVARGDILADGPSTDMGELALGQNMRVAFMPWNGFNFEDSICLSERVVQEDRFTTIHIQELTCVARDTKLGPEEITADIPNVGEAALNKLDEAGIVYVGAEVQAGDILVGKVTPKGETQLTPEEKLLRAIFGEKASDVKDTSLRVPTGTKGTVIDVQVFTRDGVERDSRALSIEKMQLDQIRKDLNEEFRIVEGATFERLRAALVGAKAEGGPALKKGTEITDDYLDGLERGQWFKLRMADDALNEQLEKAQAYISDRRQLLDDKFEDKKRKLQQGDDLAPGVLKIVKVYLAIKRRIQPGDKMAGRHGNKGVVSVIMPVEDMPHDANGTPVDIVLNPLGVPSRMNVGQILETHLGLAAKGLGEKINRMLEEQRKVAELRKFLHEIYNEIGGREENLDELGDNEILALAKNLRGGVPMATPVFDGAKEREIKAMLKLADLPESGQMRLFDGRTGNQFERPTTVGYMYMLKLNHLVDDKMHARSTGSYSLVTQQPLGGKAQFGGQRFGEMEVWALEAYGAAYTLQEMLTVKSDDVNGRTKMYKNIVDGDHRMEAGMPESFNVLIKEIRSLG", "soluble on expression in E. coli": "not soluble"}
{"sequence": "MQKAKNDYGTVVSVLKEDFHGFATGSIGAPDLNTVLTYAFPGECEYPWINFKPGYTQQQGWGGANVWQAGGTVCLNADGENFSHLNTPMLNVSGYQNIAIVRFDGVSDSLFSCLIREIRTLPSFASMPVRRKEWPIRL", "soluble on expression in E. coli": "not soluble"}
{"sequence": "MTECLQTKKSNCKNCYKCIRHCPVKSLKFTDGQAHIVRDECVLCGECYVVCPQNAKQIRSDVEKAKQLVLKYDVYASIAPSFVAWFHNKSIHDMEQALIKLGFKGADETAKGAYIVKKQYEKMIEEKKSKIIISSCCHTVNTLIQRHYTGAIQYLADVVSPMLAHAQMLKKEHKGAKVVFIGPCISKKDEAEKYKGYVELVLTFDELDEWLKSENITIESNRGSSKEGRTRSFPVSGGIISSMDKDLGYHYMVVDGMENCINALENIERGEIDNCFIEMSACRGSCINGPPARRKSNNIVGAILAVNKNTGAKDFSVPMPEPEKLKKEFRFEGVHKIMPGGTAIEEILKKMGKTSIEHELNCGSCGYDTCRDKAVAVLNGKADLTMCLPYLKEKAESFSDAIIKNTPNGVIVLNEDLEIQQINNSAKRILNLSPSTDLLGSPVSRILDPIDYILALREGKNCYYKRKYFAEYKKYVDETIIYDKEYHVIIIIMRDVTEEEKIKALKNKQSEAAIEIADKVVEKQMRVVQEIALLLGETAAETKIALTKLKETMEDE", "soluble on expression in E. coli": "not soluble"}
{"sequence": "GSGAVSIASSKVSAQYTSTVPPSHYIETWAKTHPEWKAVEVATGFLGSQKIVTEDWTYKKLNETANQVANLIIHASLHGRAIAVSLDRSLIAFAIIVGIMKSGNTYVPIEAGLPNDRKSFLLRDSRAAMAFVCDNNFDGVELPPETKVLDTKNQSFIENLSTQDTSDILNNYPENLDAYLLYTSGSTGTPKGVRVSRHNLSSFSDAWGKLIGNVAPKSLELGGVGKFLCLASRAFDVHIGEMFLAWRFGLCAVTGERLSMLDDLPRTFRELGVTHAGIVPSLLDQTGLVPEDAPHLVYLGVGGEKMTPRTQQIWSSSDRVALVNVYGPTEVTIGCSAGRILPDSDTRCIGHPLGDSVAHVLAPGSNEHVKKGMAGELVIEGSLVANGYLNRPDAKGFCDINGRKMYRTGDIVRMDADSSILFLGRKDEQVKVRGQRLELGEVSEVIRSLSPTDIDVVTLLLNHPGTSKQFLVSFVASSGAAVRGELRWINENYKEINNSLRQACEQTLPAYMVPDFIIPISFIPLRDTSAKTDAKALEHMFHTLSLGELFGESSSLVNKPTT", "soluble on expression in E. coli": "soluble"}
{"sequence": "MADGLRVALVAGEASGDILGSGLMQALRARHPDIEFIGVGGPRMEAEGLSSYFPMERLSVMGLVEVLGRLPELLRRRKRLIRTLIEARPDVMIGIDAPDFTLGVEHKLRQAGLRTVHYVSPSVWAWRQKRVLKIREACDLMLALFPFEARFYEEHGVPVRFVGHPLANTIPLQADRAAARARLGLPADGQVLALMPGSRGGEVGKLGALFLDTAQRLLVERPGLRFVLPCASAARREQIEQMLQGREPLPLTLLDGASHEALAACDAVLIASGTATLEALLYKRPMVVAYRVAGLTYRILKRLVKSPYISLPNLLAGRLLVPELIQDAATPQALAATLSPLLDDGSQQVEFFDAIHRALRQDASAQAA", "soluble on expression in E. coli": "not soluble"}
{"sequence": "MSSILTNNGAMVALQTLKSVNMNLGQTQNAISTGKNVATAKDNSAVWAISKVMESDVKGFKAIKDSLSLGESTVAVARNAAETVTDLLTQMKGKIVAAQEDNVDRNKINADVTALKDQISAVVGAAQFNGLNLVDGTAASASVLSSLDRDNAGNVTASSITVTGQNLSTGGYTAKAVFDATNTDGVSADGQDTFGFSLDANGGTDDNGQIEFEPQGTAAYAAGDSFTIRLGDTEVNYTVTAEDIASTSQADVIAVGMKAAIEASGANVTVDYNAANSGRLVITNDGTDSLQVSGQFSNANSGGLGALAAIDVSNSAGAAAALGSIETLIDTSIDAAAAFGSVQGRIETQKTFISNLTDSLKSGIGSMVDADMEEVSARLQALQVQQQLAVQSLSIANQAPQSILSLFR", "soluble on expression in E. coli": "not soluble"}
{"sequence": "MTSITPVTLANCEDEPIHVPGAIQPHGALVTLRADGMVLAASENIQALLGFVASPGSYLTQEQVGPEVLRMLEEGLTGNGPWSNSVETRIGEHLFDVIGHSYKEVFYLEFEIRTADTLSITSFTLNAQRIIAQVQLHNDTASLLSNVTDELRRMTGYDRVMAYRFRHDDSGEVVAESRREDLESYLGQRYPASDIPAQARRLYIQNPIRLIADVAYTPMRVFPALNPETNESFDLSYSVLRSVSPIHCEYLTNMGVRASMSISIVVGGKLWGLFSCHHMSPKLIPYPVRMSFQIFSQVCSAIVERLEQGRIAELLRVSTERRLALARRARDADDLFGALAHPDDGIAALIPCDGALVMLGGRTLSIRGDFERQAGNVLQRLQRDPERDIYHTDNWPQPSEDSPDGGDCCGVLAIRFHRQESGWIFWFRHEEVHRIRWGGKPEKLLTIGPSGPRLTPRGSFEAWEEVVRGHSTPWSETDLAIAEKLRLDLMELCLNHALEHHHHHH", "soluble on expression in E. coli": "soluble"}
{"sequence": "MESTVTTQEEKLAYQQSVEMASNYANQFDADMKANLAIARTISTTMESYETADRDEALLILENLLRDNPHLLGTYVAFEPDAFDGKDAEYTNSPAHDGTGRFVPYWNKMNGTASVAPLLHYDSSDYYQLPKATEKDVLTEPYFYEGVFMVSYVSPIMKEGEFAGIGGVDVSLEYVDEVVSKVRTFDTGYAFMVSNSGVILSHPTHKDWIGKKDLYDFGGEELEKASRDIKNGIGGHLETADPTTGKTVILFYEPVETGDFAFVLVVPKEEMLAGVADLRERLLEHHHHHH", "soluble on expression in E. coli": "soluble"}
{"sequence": "PTHIAIGIYFNPEIAPAPFISLIETNQCALAVRKYANEVGIPTVRDVKLARKLYKTHTKYSFVDFEHLDEVLRLIVWLEQVENTHLEHHHHHH", "soluble on expression in E. coli": "soluble"}
{"sequence": "SEWNLRRMESELRQINPDLLQPSKSFKKPSSGTITINVGGYLYAAQRHTLAKHPGSLLEEMVTGKKPVLHVDSMGNTFIDRDGPIFRHILNFLRLGELVLPEDFKETELLRREANFYRLSELAQALQDWEQQQATQREPAFLEVTDSHERSQGLRVYCSDNTFIEKVKNRLVQISKSRLDGFPEEFEVSSNIIQFRHFIKSEQGSRLVLKQDSTFLCTLECLKLETVMLALKGGFRLITSLDSSRGSVVQCEALHFVK", "soluble on expression in E. coli": "soluble"}
{"sequence": "MNTTGETTQPFYSHCDMNDPLCRAERLRTQFDYYRWHSLQPDDNDDVDTYTTDIATRIGKTQRYVCDHLDAIYYLTQLPQLHTVYQQLWHLDDTRLIAITRIISALPTTYYDAIDTHLTRWLTPTQPAQTIPSTRAITRFLRKTITHLGFHLDNTRKPEQYVYIYDAGHGLAGIDALIHAGVAEMFETTLRSIKKTHSCDDSTALQLLLEDKTSVVINVYDTGTGITYTPQGTALPQVPEHLVIRVLGDADVAVSTGYRFTEAMRRFIQGRDGVCRFPGCGVPAQWCDIDHVEEYDLGGVTGAVNAQCLCRHHHNVKTSRRVDCEIGAGGVVTWQIGDRRVVTTPEGVLAGQTFRQRREKKIKKAA", "soluble on expression in E. coli": "not soluble"}
{"sequence": "FSSALTSKDAARLADETDNIAEALRAAETEGVALQDMLQAYLPANGMVRVVNGDQKAVMTITKEKAYKDFPLSFHSGETADVRKPDGKLFAEAAVPVIWTDGQVVSLQLVERLENTEESLFLLK", "soluble on expression in E. coli": "not soluble"}
{"sequence": "CHAINAAGKKVLIVYAHQEPKSFNGSLKNVAVDELSRQGCTVTVSDLYAMNFEPRATDKDITGTLSNPEVFNYGVETHEAYKQRSLASDITDEQKKVREADLVIFQFPLYWFSVPAILKGWMDRVLCQGFAFDIPGFYDSGLLQGKLALLSVTTGGTAEMYTKTGVNGDSRYFLWPLQHGTLHFCGFKVLAPQISFAPEIASEEERKGMVAAWSQRLQTIWKEEPIPCTAHWHFGQ", "soluble on expression in E. coli": "soluble"}
{"sequence": "MNGWNFQELKETPSQTGGPYVHIGLLPKQANIEVFEHNLDNNLVQDNTQGQRIRLEGQVFDGLSLPLRDVLIEIWQADTNGVYPSQADTQGKQVDPNFLGWGRTGADFGTGFWSFNTIKPGAVPGRKGSTQAPHISLIIFARGINIGLHTRVYFDDEAEANAKDPVLNSIEWATRRQTLVAKREERDGEVVYRFDIRIQGENETVFFDI", "soluble on expression in E. coli": "soluble"}
{"sequence": "MGSDKIHHHHHHMNILMLMLSDNPDTGGMEKHARELSSELARLGHTVTLAAASQHLSDLEPAVKTRALDTGGSRNSPFLLLTVLRLIRANGFDVIHAQGTKAAFVLQRLTPFTRSLMRVATIHGFKSRYPKAAAFHQLIAVSQALATDIAQPGVTVIYNGVSVIPQAPALLPKETERPVWLAVGRLVSVKGFDFLIRTFQYCPGTLLIAGDGPERQRLADLISSTHQSETVKLLGFRSDVPALMAAADGVVISSEREGFSYVCAEALLLGKPVISTDVPIANEILPEKHIFRGEDPKRFAAYLSQDTSTLVAEQAEAQAFAADQLSLSSMASQTLNVYQRAIANLVSIH", "soluble on expression in E. coli": "not soluble"}
{"sequence": "MGSDKIHHHHHHAQDNPFKPEWFVSGGINGVTALNGSANNILGGKVSGGVWLNKIIGLRVDAEAGNVWLKGGYNAVTVGAGADILVNLMKNYTDEDRKFRLNAIFGLGYNYYSFGDDYPRLSKTNTMSGNFSLQAAFRLNSHLSIFAEPGIKISTKFYDIENKDDVFAGGMMTVGVIYKF", "soluble on expression in E. coli": "not soluble"}
{"sequence": "MGSDKIHHHHHHMEHIFQAHSPGEAGEILQQNWEHWLMTTARWREILTYDPRPATGCSPKEILWTKNKAQLYHYQCSSERRYRTPVLMIYALINRPYVLDLTPGSSLVEYLVNEGFDVYLLDWGEFEWEDRDITYADLVYDYIATAARKVARSAGSKEISIIGYCMGGTMSTLYAALFDRPVLKNLVYLAAPIDFNRAGTYDVWLKAPGYDPDRIADTMELVPKSFIDWGTRMLNPLANYWGTYTRLWKTLEEGKSVHFWKVLNKWSSDNINFPGGAYRDWIRDFYQGNKLIKNQVVLRGKRVQLQRIKANILAMVGLRDHIVMPHQTAAALTYLGGNDKTYMEFPVGHGGLVLGETARMRVFPEIAYWLGERSEELSEE", "soluble on expression in E. coli": "not soluble"}
